Measured values as given in patent USRE47770 (dated 2019).

T1: EpCAM on CHO (dhfr-) cells transfected with EpCAM cDNA (UniProt P16422 24-314, limits assumed)
T1 construct: whole, on cells; also called EP-CAM homotypic adhesion molecule; EpCAM-transfected cells
T1 sequence (looked up): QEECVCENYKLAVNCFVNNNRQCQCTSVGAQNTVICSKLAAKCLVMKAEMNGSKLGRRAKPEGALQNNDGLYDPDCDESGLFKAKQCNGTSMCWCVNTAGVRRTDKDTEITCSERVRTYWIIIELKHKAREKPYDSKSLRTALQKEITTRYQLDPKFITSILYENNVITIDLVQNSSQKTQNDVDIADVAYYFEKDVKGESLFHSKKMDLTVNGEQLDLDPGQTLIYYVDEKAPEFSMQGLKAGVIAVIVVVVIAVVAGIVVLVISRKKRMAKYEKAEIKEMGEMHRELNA

T2: Affinity-purified human CD46 from LS174T cells (human, UniProt P15529 35-392, limits assumed)
T2 construct: Coupled (640 RU) to CM5 chips for the BIACORE work; also called purified CD46; membrane cofactor protein CD46
T2 sequence (looked up): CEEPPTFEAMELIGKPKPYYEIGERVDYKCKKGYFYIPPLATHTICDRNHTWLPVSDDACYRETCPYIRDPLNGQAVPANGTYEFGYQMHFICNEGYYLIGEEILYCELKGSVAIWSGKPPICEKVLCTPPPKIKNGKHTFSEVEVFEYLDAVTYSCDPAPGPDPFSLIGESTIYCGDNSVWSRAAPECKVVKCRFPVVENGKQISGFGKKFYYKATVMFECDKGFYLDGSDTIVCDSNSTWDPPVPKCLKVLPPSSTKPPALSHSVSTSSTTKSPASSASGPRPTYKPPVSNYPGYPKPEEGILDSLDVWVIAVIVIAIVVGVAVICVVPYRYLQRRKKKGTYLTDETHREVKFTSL

T3: CD46 on cells (human colon carcinoma LS174T cells; CHO (dhfr-) cells transfected with CD46 cDNA) (human, UniProt P15529 35-392)
T3 construct: whole, on cells; also called CD46 transfectants; cofactor protein CD46
T3 sequence (looked up): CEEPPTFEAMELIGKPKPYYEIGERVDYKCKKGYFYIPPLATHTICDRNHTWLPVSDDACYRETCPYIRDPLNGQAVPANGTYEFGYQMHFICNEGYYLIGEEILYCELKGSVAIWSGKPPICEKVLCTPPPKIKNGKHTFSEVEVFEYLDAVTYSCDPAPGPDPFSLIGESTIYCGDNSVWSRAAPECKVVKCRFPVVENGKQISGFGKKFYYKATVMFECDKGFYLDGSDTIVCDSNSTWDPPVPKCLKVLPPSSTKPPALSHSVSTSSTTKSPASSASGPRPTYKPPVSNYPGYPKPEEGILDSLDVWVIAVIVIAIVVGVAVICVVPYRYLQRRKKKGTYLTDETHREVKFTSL


Columns and labels:
[1] = biological target: T1, EpCAM on CHO (dhfr-) cells transfected …; experiment: FACS on CHO cells transfected with EpCAM, CD46 or CD38
[2] = biological target: T4, CD38 on CHO (dhfr-) cells transfected with CD38 cDNA (UniProt P28907 1-300, limits assumed); experiment: as above
T4 construct: whole, on cells; also called control antigen CD38; negative control (CD38)

[3] = biological target: T2, Affinity-purified human CD46 from …; experiment: SPR (BIACORE 3000, 37° C.), purified CD46 coupled to CM5 chip, IgG in solution
[4] = biological target: T3, CD46 on cells (human colon carcinoma …); experiment: FACS on CHO cells transfected with EpCAM, CD46 or CD38

binding result [1]	binding result [2]	Kd [3] [nM]	binding result [4]	Binder
no binding (tested: 20 µg IgG1/ml)	no binding (tested: 20 µg IgG1/ml)	22	–	02-237 IgG (antibody, V domains shown, amino acid residue 1 is a pyroglutamic acid (remark to Table III), Tested as human IgG1 (constant domains from pCRU-K01); The N-terminus of its light chain differs slightly from that of UBS54/K53 because of the cloning strategy) VH: QVQLVQSGAEVKKPGASVKVSCKASGYTFTSYGISWVRQAPGQGLEWMGWISAYNGNTNYAQKLQGRVTMTTDTSTSTAYMELRSLRSDDTAVYYCARGFPRTSFDSWGQGTLVTVSS VL: not shown
no binding (tested: 20 µg IgG1/ml)	no binding (tested: 20 µg IgG1/ml)	910	–	K53 IgG (antibody, V domains shown, amino acid residue 1 is a pyroglutamic acid (remark to Table III), also called clone K53; anti-CD46 clone K53) VH: QVQLVQSGAEVKKPGASVKVSCKASGYTFTSYGISWVRQAPGQGLEWMGWISAYNGNTNYAQKLQGRVTMTTDTSTSTAYMELRSLRSDDTAVYYCARGMMRGVFDYWGQGTLVTVST VL: not shown
–	no binding (tested: 20 µg IgG1/ml)	–	no binding (tested: 20 µg IgG1/ml)	UBS54 IgG (antibody, V domains shown, amino acid residue 1 is a pyroglutamic acid (remark to Table III), Tested as full human IgG1 with kappa light chain; also called anti-EpCAM clone UBS54; encoded by pUBS3000Neo) VH: QVQLVQSGAEVKKPGSSVRVSCKASGGTFSSYAISWVRQAPGQGLEWMGGIIPIFGTANYAQKFQGRVTITADESTSTAYMELSSLRSEDTAVYYCARDPFLHYWGQGTLVTVST VL: not shown
